Results reported in patent US20100260668A1 (published 2010).

Target: T1, DLL4 ECD His tag (UniProt Q9NR61 27-529, limits assumed)
T1 construct: extracellular domain; also called DLL ECD His tag
Assay: SPR (Biacore), DVD-Ig captured, DLL4 as analyte

Kd [nM]	koff [s⁻¹]	kon [M⁻¹ s⁻¹]	Binder
2.83	0.000472	167000	DVD519 (bispecific antibody, human IgG1, kappa, lambda, HC linker long, LC linker long; also called DVD-Ig DVD519) heavy: not shown light: QAVVTQESALTTSPGETVTLTCRSSTGAVTTSNYANWVQEKPDHLFTGLIGGTNNRAPGVPARFSGSLIGDKAALTITGAQTEDEAIYFCALWYSNHWVFGGGTKLTVLGQPKAAPSVTLFPPDIQMTQSPSSLSASVGDRVTITCRASQDVSTAVAWYQQKPGKAPKLLIYSASFLYSGVPSRFSGSGSGTDFTLTISSLQPEDFATYYCQQSYTTPPTFGQGTKVEIKRTVAAPSVFIFPPSDEQLKSGTASVVCLLNNFYPREAKVQWKVDNALQSGNSQESVTEQDSKDSTYSLSSTLTLSKADYEKHKVYACEVTHQGLSSPVTKSFNRGEC
0.334	0.000139	416000	DVD483 (bispecific antibody, human IgG1, kappa, HC linker short, LC linker long; also called DVD-Ig DVD483) heavy: not shown light: DIQMTQSPSSLSASVGDRVTITCRASQDVSTAVAWYQQKPGKAPKLLIYSASFLYSGVPSRFSGSGSGTDFTLTISSLQPEDFATTYYCQQSYTGTVTFGQGTKVEIKRTVAAPSVFIFPPDIQMTQSPSSLSASVGDRVTITCRASQDVSTAVAWYQQKPGKAPKLLIYSASFLYSGVPSRFSGSGSGTDFTLTISSLQPEDFATYYCQQSYTTPPTFGQGTKVEIKRTVAAPSVFIFPPSDEQLKSGTASVVCLLNNFYPREAKVQWKVDNALQSGNSQESVTEQDSKDSTYSLSSTLTLSKADYEKHKVYACEVTHQGLSSPVTKSFNRGEC
4.81	0.000584	121000	DVD449 (bispecific antibody, human IgG1, kappa, HC linker long, LC linker long; also called DVD-Ig DVD449) heavy: not shown light: DIVMTQSPDSLAVSLGERATISCRASESVDNYGISFMKWFQQKPGQPPKLLIYAASNQGSGVPDRFSGSGSGTDFTLTISSLQAEDVAVYYCQQSKEVPWTFGGGTKVEIKRTVAAPSVFIFPPDIQMTQSPSSLSASVGDRVTITCRASQDVSTAVAWYQQKPGKAPKLLIYSASFLYSGVPSRFSGSGSGTDFTLTISSLQPEDFATYYCQQSYTTPPTFGQGTKVEIKRTVAAPSVFIFPPSDEQLKSGTASVVCLLNNFYPREAKVQWKVDNALQSGNSQESVTEQDSKDSTYSLSSTLTLSKADYEKHKVYACEVTHQGLSSPVTKSFNRGEC
4.11	0.000596	145000	DVD443 (bispecific antibody, human IgG1, kappa, HC linker short, LC linker short; also called DVD-Ig DVD443) heavy: not shown light: DIVMTQSPDSLAVSLGERATISCRASESVDNYGISFMKWFQQKPGQPPKLLIYAASNQGSGVPDRFSGSGSGTDFTLTISSLQAEDVAVYYCQQSKEVPWTFGGGTKVEIKRTVAAPDIQMTQSPSSLSASVGDRVTITCRASQDVSTAVAWYQQKPGKAPKLLIYSASFLYSGVPSRFSGSGSGTDFTLTISSLQPEDFATYYCQQSYTTPPTFGQGTKVEIKRTVAAPSVFIFPPSDEQLKSGTASVVCLLNNFYPREAKVQWKVDNALQSGNSQESVTEQDSKDSTYSLSSTLTLSKADYEKHKVYACEVTHQGLSSPVTKSFNRGEC
0.263	7.91e-05	301000	DVD495 (bispecific antibody, human IgG1, kappa, HC linker long, LC linker long; also called DVD-Ig DVD495) heavy: not shown light: DIQMTQSSSYLSVSLGGRVTITCKASDHINNWLAWYQQKPGNAPRLLISGATSLETGVPSRFSGSGSGKDYTLSITSLQTEDVATYYCQQYWSIPLTFGAGTKLELKRTVAAPSVFIFPPDIQMTQSPSSLSASVGDRVTITCRASQDVSTAVAWYQQKPGKAPKLLIYSASFLYSGVPSRFSGSGSGTDFTLTISSLQPEDFATYYCQQSYTTPPTFGQGTKVEIKRTVAAPSVFIFPPSDEQLKSGTASVVCLLNNFYPREAKVQWKVDNALQSGNSQESVTEQDSKDSTYSLSSTLTLSKADYEKHKVYACEVTHQGLSSPVTKSFNRGEC
0.306	0.000165	540000	DVD477 (bispecific antibody, human IgG1, kappa, L234A L235A, HC linker long, LC linker short; also called DVD-Ig DVD477) heavy: not shown light: DIQMTQSPSSLSASVGDRVTITCRASQDVSTAVAWYQQKPGKAPKLLIYSASFLYSGVPSRFSGSGSGTDFTLTISSLQPEDFATTYYCQQSYTGTVTFGQGTKVEIKRTVAAPDIQMTQSPSSLSASVGDRVTITCRASQDVSTAVAWYQQKPGKAPKLLIYSASFLYSGVPSRFSGSGSGTDFTLTISSLQPEDFATYYCQQSYTTPPTFGQGTKVEIKRTVAAPSVFIFPPSDEQLKSGTASVVCLLNNFYPREAKVQWKVDNALQSGNSQESVTEQDSKDSTYSLSSTLTLSKADYEKHKVYACEVTHQGLSSPVTKSFNRGEC
0.283	8.38e-05	296000	DVD489 (bispecific antibody, human IgG1, kappa, L234A L235A, HC linker short, LC linker short; also called DVD-Ig DVD489) heavy: not shown light: DIQMTQSSSYLSVSLGGRVTITCKASDHINNWLAWYQQKPGNAPRLLISGATSLETGVPSRFSGSGSGKDYTLSITSLQTEDVATYYCQQYWSIPLTFGAGTKLELKRTVAAPDIQMTQSPSSLSASVGDRVTITCRASQDVSTAVAWYQQKPGKAPKLLIYSASFLYSGVPSRFSGSGSGTDFTLTISSLQPEDFATYYCQQSYTTPPTFGQGTKVEIKRTVAAPSVFIFPPSDEQLKSGTASVVCLLNNFYPREAKVQWKVDNALQSGNSQESVTEQDSKDSTYSLSSTLTLSKADYEKHKVYACEVTHQGLSSPVTKSFNRGEC

Further lines, the binder ahead of its results:

Binder	Kd [nM]	koff [s⁻¹]	kon [M⁻¹ s⁻¹]
DVD531 (bispecific antibody, human IgG1, kappa, lambda, HC linker short, LC linker long; also called DVD-Ig DVD531) heavy: not shown light: QAVVTQESALTTSPGETVTLTCRSSTGAVTTSNYANWVQEKPDHLFTGLIGGTNNRAPGVPARFSGSLIGDKAALTITGAQTEDEAIYFCALWYSNHWVFGGGTKLTVLGQPKAAPSVTLFPPDIQMTQSPSSLSASVGDRVTITCRASQDVSTAVAWYQQKPGKAPKLLIYSASFLYSGVPSRFSGSGSGTDFTLTISSLQPEDFATYYCQQSYTTPPTFGQGTKVEIKRTVAAPSVFIFPPSDEQLKSGTASVVCLLNNFYPREAKVQWKVDNALQSGNSQESVTEQDSKDSTYSLSSTLTLSKADYEKHKVYACEVTHQGLSSPVTKSFNRGEC	3.47	0.000858	248000
DVD471 (bispecific antibody, human IgG1, kappa, L234A L235A, HC linker long, LC linker long; also called DVD-Ig DVD471) heavy: not shown light: DIQMTQSPSSLSASVGDRVTITCRASQDVSTAVAWYQQKPGKAPKLLIYSASFLYSGVPSRFSGSGSGTDFTLTISSLQPEDFATTYYCQQSYTGTVTFGQGTKVEIKRTVAAPSVFIFPPDIQMTQSPSSLSASVGDRVTITCRASQDVSTAVAWYQQKPGKAPKLLIYSASFLYSGVPSRFSGSGSGTDFTLTISSLQPEDFATYYCQQSYTTPPTFGQGTKVEIKRTVAAPSVFIFPPSDEQLKSGTASVVCLLNNFYPREAKVQWKVDNALQSGNSQESVTEQDSKDSTYSLSSTLTLSKADYEKHKVYACEVTHQGLSSPVTKSFNRGEC	0.672	0.000252	376000
DVD461 (bispecific antibody, human IgG1, kappa, HC linker short, LC linker long; also called DVD-Ig DVD461) heavy: not shown light: DIVMTQSPDSLAVSLGERATISCRASESVDNYGISFMKWFQQKPGQPPKLLIYAASNQGSGVPDRFSGSGSGTDFTLTISSLQAEDVAVYYCQQSKEVPWTFGGGTKVEIKRTVAAPSVFIFPPDIQMTQSPSSLSASVGDRVTITCRASQDVSTAVAWYQQKPGKAPKLLIYSASFLYSGVPSRFSGSGSGTDFTLTISSLQPEDFATYYCQQSYTTPPTFGQGTKVEIKRTVAAPSVFIFPPSDEQLKSGTASVVCLLNNFYPREAKVQWKVDNALQSGNSQESVTEQDSKDSTYSLSSTLTLSKADYEKHKVYACEVTHQGLSSPVTKSFNRGEC	4.69	0.000538	115000
DVD455 (bispecific antibody, human IgG1, kappa, HC linker long, LC linker short; also called DVD-Ig DVD455) heavy: not shown light: DIVMTQSPDSLAVSLGERATISCRASESVDNYGISFMKWFQQKPGQPPKLLIYAASNQGSGVPDRFSGSGSGTDFTLTISSLQAEDVAVYYCQQSKEVPWTFGGGTKVEIKRTVAAPDIQMTQSPSSLSASVGDRVTITCRASQDVSTAVAWYQQKPGKAPKLLIYSASFLYSGVPSRFSGSGSGTDFTLTISSLQPEDFATYYCQQSYTTPPTFGQGTKVEIKRTVAAPSVFIFPPSDEQLKSGTASVVCLLNNFYPREAKVQWKVDNALQSGNSQESVTEQDSKDSTYSLSSTLTLSKADYEKHKVYACEVTHQGLSSPVTKSFNRGEC	4.7	0.000604	129000
DVD465 (bispecific antibody, human IgG1, kappa, HC linker short, LC linker short; also called DVD-Ig DVD465) heavy: not shown light: DIQMTQSPSSLSASVGDRVTITCRASQDVSTAVAWYQQKPGKAPKLLIYSASFLYSGVPSRFSGSGSGTDFTLTISSLQPEDFATTYYCQQSYTGTVTFGQGTKVEIKRTVAAPDIQMTQSPSSLSASVGDRVTITCRASQDVSTAVAWYQQKPGKAPKLLIYSASFLYSGVPSRFSGSGSGTDFTLTISSLQPEDFATYYCQQSYTTPPTFGQGTKVEIKRTVAAPSVFIFPPSDEQLKSGTASVVCLLNNFYPREAKVQWKVDNALQSGNSQESVTEQDSKDSTYSLSSTLTLSKADYEKHKVYACEVTHQGLSSPVTKSFNRGEC	0.205	0.000164	797000
DVD501 (bispecific antibody, human IgG1, kappa, HC linker long, LC linker short; also called DVD-Ig DVD501) heavy: not shown light: DIQMTQSSSYLSVSLGGRVTITCKASDHINNWLAWYQQKPGNAPRLLISGATSLETGVPSRFSGSGSGKDYTLSITSLQTEDVATYYCQQYWSIPLTFGAGTKLELKRTVAAPDIQMTQSPSSLSASVGDRVTITCRASQDVSTAVAWYQQKPGKAPKLLIYSASFLYSGVPSRFSGSGSGTDFTLTISSLQPEDFATYYCQQSYTTPPTFGQGTKVEIKRTVAAPSVFIFPPSDEQLKSGTASVVCLLNNFYPREAKVQWKVDNALQSGNSQESVTEQDSKDSTYSLSSTLTLSKADYEKHKVYACEVTHQGLSSPVTKSFNRGEC	0.302	8.14e-05	270000
DVD513 (bispecific antibody, human IgG1, kappa, HC linker short, LC linker short; also called DVD-Ig DVD513) heavy: not shown light: QAVVTQESALTTSPGETVTLTCRSSTGAVTTSNYANWVQEKPDHLFTGLIGGTNNRAPGVPARFSGSLIGDKAALTITGAQTEDEAIYFCALWYSNHWVFGGGTKLTVLGQPKAAPDIQMTQSPSSLSASVGDRVTITCRASQDVSTAVAWYQQKPGKAPKLLIYSASFLYSGVPSRFSGSGSGTDFTLTISSLQPEDFATYYCQQSYTTPPTFGQGTKVEIKRTVAAPSVFIFPPSDEQLKSGTASVVCLLNNFYPREAKVQWKVDNALQSGNSQESVTEQDSKDSTYSLSSTLTLSKADYEKHKVYACEVTHQGLSSPVTKSFNRGEC	2.5	0.000677	271000
DVD525 (bispecific antibody, human IgG1, kappa, HC linker long, LC linker short; also called DVD-Ig DVD525) heavy: not shown light: QAVVTQESALTTSPGETVTLTCRSSTGAVTTSNYANWVQEKPDHLFTGLIGGTNNRAPGVPARFSGSLIGDKAALTITGAQTEDEAIYFCALWYSNHWVFGGGTKLTVLGQPKAAPDIQMTQSPSSLSASVGDRVTITCRASQDVSTAVAWYQQKPGKAPKLLIYSASFLYSGVPSRFSGSGSGTDFTLTISSLQPEDFATYYCQQSYTTPPTFGQGTKVEIKRTVAAPSVFIFPPSDEQLKSGTASVVCLLNNFYPREAKVQWKVDNALQSGNSQESVTEQDSKDSTYSLSSTLTLSKADYEKHKVYACEVTHQGLSSPVTKSFNRGEC	2.57	0.00122	475000
